Target: rPrP23-231 (full-length mature recombinant prion protein) (mouse, UniProt P04925 23-231)
Test: fluorescence anisotropy

rPrP23-231 (full-length mature recombinant prion protein), sequence (P04925 23-231): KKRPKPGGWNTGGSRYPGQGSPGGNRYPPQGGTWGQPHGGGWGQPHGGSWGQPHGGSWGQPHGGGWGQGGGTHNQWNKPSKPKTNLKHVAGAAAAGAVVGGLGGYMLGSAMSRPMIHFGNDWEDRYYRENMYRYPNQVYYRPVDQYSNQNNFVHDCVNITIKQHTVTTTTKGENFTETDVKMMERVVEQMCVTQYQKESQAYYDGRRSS

B1: opRNA (structured_RNA)
RNA: AAACAUGGGUUCCCAUGU
B1: binds.

From PMC2443653
